Results published in patent publication US20030036166A1.

Legend:
ErbB4.Fc [1] = biological target: T1, ErbB4.Fc (UniProt Q15303); experiment: displacement of ^125I-NRG3^EGF.Fc (80 pM) from immobilized ErbB4.Fc by NRG1^EGF, 96-well plate, nonlinear regression
T1 sequence (looked up): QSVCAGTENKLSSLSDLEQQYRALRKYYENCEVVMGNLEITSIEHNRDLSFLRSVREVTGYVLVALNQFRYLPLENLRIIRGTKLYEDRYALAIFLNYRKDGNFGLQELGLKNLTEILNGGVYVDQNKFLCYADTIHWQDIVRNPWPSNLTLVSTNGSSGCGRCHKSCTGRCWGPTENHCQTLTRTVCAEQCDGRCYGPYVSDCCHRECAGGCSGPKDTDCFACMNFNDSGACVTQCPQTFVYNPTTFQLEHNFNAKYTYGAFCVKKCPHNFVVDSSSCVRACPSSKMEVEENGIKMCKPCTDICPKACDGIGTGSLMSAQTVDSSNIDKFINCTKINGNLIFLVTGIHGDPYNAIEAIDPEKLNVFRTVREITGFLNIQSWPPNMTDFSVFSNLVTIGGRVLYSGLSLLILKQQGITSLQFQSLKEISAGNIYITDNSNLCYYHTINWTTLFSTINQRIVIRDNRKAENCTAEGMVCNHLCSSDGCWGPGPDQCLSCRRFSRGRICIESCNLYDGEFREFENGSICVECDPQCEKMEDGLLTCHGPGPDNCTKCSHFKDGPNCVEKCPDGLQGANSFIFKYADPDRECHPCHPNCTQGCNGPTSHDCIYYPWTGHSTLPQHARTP

ErbB4.Fc [2] = biological target: T1, ErbB4.Fc; experiment: displacement of ^125I-NRG3^EGF.Fc (80 pM) from immobilized ErbB4.Fc by unlabeled NRG3^EGF.Fc, 96-well plate, nonlinear regression

Chain of NRG3^EGF.Fc (O35181 284-344 limits assumed): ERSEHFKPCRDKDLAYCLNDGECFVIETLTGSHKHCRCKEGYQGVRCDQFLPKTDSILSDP

Substance | Ki (ErbB4.Fc [1]) | Ki (ErbB4.Fc [2])
NRG1^EGF (EGF-like domain of heregulin-β1, rHRGβ1 177-244) (from UniProt Q02297 177-244) (ligand) | 1 nM | 
NRG3^EGF.Fc (from UniProt O35181 284-344) (Fc fusion) |  | 9 nM
